Test results taken from the DeepSol protein solubility set.

experiment: soluble on expression in E. coli; label from the status in PepcDB or PDB records

Sequence | soluble on expression in E. coli
MNQYLAVTSNGMENLLVEELTKLGIENAKPVQAGVKFKATNEQIYRCCLWSRLASRFVRVLSEFTCNDDMDLYLSTSSINWVNQFHSSKRFVVDFNGTNREIRNSQYGAMKVKDGIVDCFEKKGLPRPNISKERPDIRVHVRLHKDKAILGVDMVGSGLHQRGYRPESGRAPLRETLAAAIIMRCGWDGHQPLLDPMCGSGTLLIEAAMMAANMAPGVKRKQWCFESLEDFEPDTWAEIKSEANVQARRGVKKVDAKFFGFDNDPKVLKVAQENARRAGVEELIEFAQGDVATITRLSGFENGVIVSNPPYGERLGTEPGLIALYTAFGGQLKAEFGGCKASIFSSSDELLSCLRMRADKQFKLNNGALPCHQKNYSIAERSADEVKGADTNTQIAPDFSNRLKKNIGKIGKWARKEKLDCYRIYDADLPEYNVAIDVYGDQIVIQEYAAPKNIPEEKAKRRLTDIIRATIQVTGVEANKVVLKVREKQKGRSQYQK | not soluble
MSAKREFSHITLASTPFKKRIDQNSLKTDSDIEKDTNIAHKCAERFNYNTNLHRKVTLSDRFELAALGYEMKAKPRTIIEKHNDCDEFHFIYRKEKKNDYGTGSPLSAGLSLSNPLPAGRGFLSPAIQNTSNQFTFSGSPRITPQKHTPVSANHKPARSIFDDIPSNIA | not soluble
KKPEGKPDQKFDQKQELGRVIHLSNLPHSGYSDSAVLKLAEPYGKIKNYILMRMKSQAFIEMETREDAMAMVDHCLKKALWFQGRCVKVDLSEKYKKLV | soluble
MGSDKIHHHHHHMFTTQIHLKVLAMMLLCGLLNACSQTPQQCSSAIITTWSSAHSQITQDITTLSSTEFQGRKTDSEGARLTQAYLITRFTEMGLQPWQPNFAVPFSFQHQFSTVSGVNIIATIAAKTRSNRWRVITAHYDHLGQTANKMYPGADDNASGIAGMMAIAAQWQENPPLDDVNLMIVATDAEEPGLYGSYALVTLLQQYPLMDIELSVNLDMIGHPDRRRAIYMEGQKNLSNFESIKPLLMQQTQLCIRTHHTNLLSGRMKKSDWLRASDHYPFHKAGYSWVYFGVPPHAQYHTADDTIATLDIDFIVAVAETVYQMLSIDKLTKAP | not soluble
MSDFVPETEENEEESQKIDEIHEIPAQAIIIDQSFSRRFLNNKWYGKYGEDGDLLEHIDEDWEPVGLDEVEFLSQLWFEQEDQEKKAHRHYDWDEEKKEWVPKAKQEEVNEDFIAEYQANYGVQYDDIYKKMDEELQEKAAKAQKEDEEKKEKKRKKKVGLGAGEDAKEGWLDLGDKVHAVYVSNLPEDITDEEFQKFMSKCGVIQPDIRTNKPKCKLYREENGKLKGDGRCCYIKKESVELACNILDGANLNGREVKVEEARFEMKGDFDPARKRRKLTAAQKKRYMEQQNKIFEWTPDKPRNYRPKSDCTVIVKNLFTQEMMNKNAALMLDLKEEMTQSCQKYGIVKKVVVYANHPDGVVSVTFPTTEESDMAVKYLHGRVVDGRKLTAELWDGRTKFKVEETEEDEEKRRKEYEKYIEGGSSETKEESDDDDDDEAEDN | not soluble
MRGENTMTPVFELKNVNYYYDHKKVLENINIKINKGEFLAIVGPNGAGKSTLLKLILGLLPLQSGEIFVEGIDFKNKKTSIKLSYVSQKANAFNSGFPASVKEVVLSGLTKTKRLFQTFNSKDNEKVIKVLERLNISDLIHKNIAELSGGQQQRVMIARALISEPAVLVLDEPTNGIDAKHVSEFYNTLDQLKQEGITIILVTHDIGVVADTATEVACLNKHLHFHGTTDEFKSLDEVEISKIYGHPVRFVDHQHNRECCN | not soluble
MSLAIGRILIIDDENINAETMMDTLEDVNYHVVLAANANQAKTIVEDQIFDLVMMDVWMPAQDGMSLLEEWTQSGFSTPIVMMSGHAEHQDVVKAIKLGAVDFLEKPLHDILPLVRKILSEQVLEKSEHTINGIEFNAPLKEARNIFEVQYFNHHLQENKHNIAKVAILAGLERTTLYRKLKDLGIDKEGHHHHHH | soluble
MGSDKIHHHHHHVIRRAKPLLGTLVEIAAESLPHSGSEIPLEDKALEAAMTAAFSRVTHIGRLLSFHQQDSELNQLNRQPGTWIRVSQDSLRVLKLAKWLGKASNNLFNCTVGGEMMSRGALPAYLGMPLLLQGEWQDIEIKDNQVRLARPLILTLDGIAKGYAVDMAVSELRRAGVGGGWVNAGGDLRVFGSASLNVLCRGPKGLSQKICVSNMALASSRVSQTLSHDYPALLLPTGNVTDVNIDLESERIVSVSAPFAWRADALTKVAGYLSSDSAADKIAHLGGRLVSFE | not soluble
MCKSCYHCGEDVPANTDFKVEILGEVREMCCPGCETVAQTIVDSGLVSYYQYRTAPAEKADLVPEQLQALIHYDNEDVQSEFVRNHDN | not soluble
MAAAAVSSAKRSLRGELKQRLRAMSAEERLRQSRVLSQKVIAHSEYQKSKRISIFLSMQDEIETEEIIKDIFQRGKICFIPRYRFQSNHMDMVRIESPEEISLLPKTSWNIPQPGEGDVREEALSTGGLDLIFMPGLGFDKHGNRLGRGKGYYDAYLKRCLQHQEVKPYTLALAFKEQICLQVPVNENDMKVDEVLYEDSSTA | soluble
MGSDKIHHHHHHSVQSIINNPAVDPHDYEPTTKVGKSVASADLVVASGIGYDGWMDKVVKSADKSKNYLRVADDLMNKKEGDNEHIWYDPRTMSKLANTLADKFAKKDPADKATFKANAKKYIASLDNLNTLINKLKSKVNGQLVDVSEPVFGYALDYLGYKVNDDHFSKSTEDGTDYSAKDIHGIETDIKEKKIAFFVNNIQASSKTVNQLVKLAEQNNVPVLKVTETLPKGKNYRTWMTSQYQQLEKIQDQATNSAK | not soluble
APQIQYKQLQLARLKILRELSNKRNSTVITMIHRQESIGLFGIPVYKFITIEDSEEILRAIRAAPKDKPIDLIIHTPGGLVLAATQIAKALKAHPAETRVIVPHYAMSGGTLIALAADKIIMDENAVLGPVDPQLGQYPAPSIVKAVEQKGADKADDQTLILADIAKKAINQVQNFVYNLLKDKYGEEKAKELSKILTEGRWTHDYPITVEEAKELGL | not soluble
LGKQIMFDAFRFKCPPQELNAAIIKQLRGLLDLGIGEIKARAEKQEALLEYPIFFNDWQDNKKIIRNLLDRISADQLPLEIYRYTTFEDGSVLEEQLTLKEANEALTALQRIELEQDMLSQLEAGHISSRDEYVPDDEDV | not soluble
MLILRKDSKFDRKSIEELKELAEVLYNPVKTIVQIRKADPKYQIGSGLVERIAENIKEENIEIVIVGNILTPSQKYNLAKKFKVEVIDKIELVLRIFYKHARTKEAQLQVRLAELQYELPRAREKVRLAKMGEQPGFGGYGDYEVEKYYQKVKREIATIKRKLEKLREHRRVARKGRAKFDTVGLIGYTNAGKTSLLNALTGENKESKNQVFTTLTTTTRAIKGIKRKILVTDTVGFIDDLPPFMIEAFLSTIEESADSDLILIVVDASDDIEEIKRKLKVNHEILSKINCKAPIITVFNKVDKITKEKKRKILEELDRYIVNPIFVSAKYDINMDLLKEMIIEHLNLSIGTIETDNPRLISYLYENTEIIEDILEDNKHIITFRAKERDVNRILKLHKSAVLEHHHHHH | not soluble
MGSDKIHHHHHHMAIILGGMVPRPPWKYRLLAAIHAHRNAGDPGADPLVRRAVERLVAVTSRVVFGVEKPGWITSGASEGNLLALYTLREEGYRRVVAFDTSHYSIKKSALTLSMELDLLPTHGGRPRLDLLERRITPDSVVVATVGTTQEGLVDPVEEIAGVAESVGAAVHVDAAYGGYIARFLTGKARFRLEPPVMTVVVDAHKIPEAPPPAGVILASKQKLLDNLWFESPYIPTGRQFGILGTRPGGPIVAAWRRVEDLERNPGFPRLASILMRRLRKTLKALERLGYETPVTPDLPVACATHPRLGEVLERLKASGVRVYRCRSPKPCLHVTNYGRLCRARLGSSRSPRGCLRKPLGASLGNPGVTGLGL | not soluble
